B3: FLAG-HsCdt1 (natural protein, human, UniProt Q9H211 1-546, looked up)
chain: MEQRRVTDFFARRRPGPPRIAPPKLACRTPSPARPALRAPASATSGSRKRARPPAAPGRDQARPPARRRLRLSVDEVSSPSTPEAPDIPACPSPGQKIKKSTPAAGQPPHLTSAQDQDTISELASCLQRARELGARVRALKASAQDAGESCTPEAEGRPEEPCGEKAPAYQRFHALAQPGLPGLVLPYKYQVLAEMFRSMDTIVGMLHNRSETPTFAKVQRGVQDMMRRRFEECNVGQIKTVYPASYRFRQERSVPTFKDGTRRSDYQLTIEPLLEQEADGAAPQLTASRLLQRRQIFSQKLVEHVKEHHKAFLASLSPAMVVPEDQLTRWHPRFNVDEVPDIEPAALPQPPATEKLTTAQEVLARARNLISPRMEKALSQLALRSAAPSSPGSPRPALPATPPATPPAASPSALKGVSQDLLERIRAKEAQKQLAQMTRCPEQEQRLQRLERLPELARVLRSVFVSERKPALSMEVACARMVGSCCTIMSPGEMEKHLLLLSELLPDWLSLHRIRTDTYVKLDKAADLAHITARLAHQTRAEEGL
notes: human Cdt1; also called human Cdt1; source: Sf9, baculovirus; purified (anti-FLAG M2 agarose, FLAG peptide elution); also in Sf9 lysate; not shown: FLAG, N-terminal, kept

The assay “FLAG-HsCdt1” addresses B3. Nature of the assay: co-IP; 60 ng purified FLAG-HsCdt1 with 40 ng wild-type or mutant HsGeminin; rabbit anti-human Geminin polyclonal antibodies on protein A/G plus agarose; PBS plus 1 mg/ml BSA, 4 °C, 3 h; washed with PBS plus 0.5 M NaCl; Western blot. The conditions noted are these: both partners purified. A general note: In western blotting, separated proteins are transferred to a membrane and probed.

The target in another assay is T1, HsMCM467 complex (human, UniProt P33991 1-863; Q14566 1-821; P33993 1-719).
T1 construct: human Mcm4; human Mcm6, untagged; human Mcm7, untagged; source: Sf9 co-infected with baculoviruses for His6-2xFLAG-HsMcm4, HsMcm6 and HsMcm7; purified (Ni-NTA, then FLAG M2 agarose); copies: + +
Nature of the assay: recruitment to DNA-coupled magnetic beads; two steps: HsORC or control buffer on pUC19-lamin-B2 DNA beads, then HsMCM467 or HsMCM2–7 with HsCdc6 and/or HsCdt1; 90 mM potassium acetate, 4 mM ATP, 37 °C, 30 min; washed with 100 mM potassium glutamate; Western blot. The following applies: both partners purified.

In the next assay the target is T2, HsMCM2–7 complex (human | human (endogenous in 293T), UniProt P49736 1-904; P25205 1-808; P33991 1-863; P33992 1-734; Q14566 1-821; P33993 …).
T2 construct: human Mcm2, full length; Mcm3, endogenous in 293T; Mcm4, endogenous in 293T; Mcm5, endogenous in 293T; Mcm6, endogenous in 293T; Mcm7, endogenous in 293T; also called complete heterohexameric human MCM complex; copies: + + + + +
The description is as above. The following applies: both partners purified.

In assay [1] the target is T3, FLAG-HsGeminin-His6 (wild type) (Homo sapiens (Human), UniProt O75496).
T3 chain: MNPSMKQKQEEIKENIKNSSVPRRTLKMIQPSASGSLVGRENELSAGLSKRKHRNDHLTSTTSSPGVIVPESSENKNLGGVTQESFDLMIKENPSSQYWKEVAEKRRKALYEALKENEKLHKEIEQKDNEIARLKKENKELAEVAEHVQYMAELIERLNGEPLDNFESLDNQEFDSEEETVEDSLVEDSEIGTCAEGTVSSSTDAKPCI
Put plainly: co-immunoprecipitation of purified proteins (anti-Geminin, 0.5 M NaCl wash, Western blot).

T1 sequence (P33991 whole entry, chain 1 of 3): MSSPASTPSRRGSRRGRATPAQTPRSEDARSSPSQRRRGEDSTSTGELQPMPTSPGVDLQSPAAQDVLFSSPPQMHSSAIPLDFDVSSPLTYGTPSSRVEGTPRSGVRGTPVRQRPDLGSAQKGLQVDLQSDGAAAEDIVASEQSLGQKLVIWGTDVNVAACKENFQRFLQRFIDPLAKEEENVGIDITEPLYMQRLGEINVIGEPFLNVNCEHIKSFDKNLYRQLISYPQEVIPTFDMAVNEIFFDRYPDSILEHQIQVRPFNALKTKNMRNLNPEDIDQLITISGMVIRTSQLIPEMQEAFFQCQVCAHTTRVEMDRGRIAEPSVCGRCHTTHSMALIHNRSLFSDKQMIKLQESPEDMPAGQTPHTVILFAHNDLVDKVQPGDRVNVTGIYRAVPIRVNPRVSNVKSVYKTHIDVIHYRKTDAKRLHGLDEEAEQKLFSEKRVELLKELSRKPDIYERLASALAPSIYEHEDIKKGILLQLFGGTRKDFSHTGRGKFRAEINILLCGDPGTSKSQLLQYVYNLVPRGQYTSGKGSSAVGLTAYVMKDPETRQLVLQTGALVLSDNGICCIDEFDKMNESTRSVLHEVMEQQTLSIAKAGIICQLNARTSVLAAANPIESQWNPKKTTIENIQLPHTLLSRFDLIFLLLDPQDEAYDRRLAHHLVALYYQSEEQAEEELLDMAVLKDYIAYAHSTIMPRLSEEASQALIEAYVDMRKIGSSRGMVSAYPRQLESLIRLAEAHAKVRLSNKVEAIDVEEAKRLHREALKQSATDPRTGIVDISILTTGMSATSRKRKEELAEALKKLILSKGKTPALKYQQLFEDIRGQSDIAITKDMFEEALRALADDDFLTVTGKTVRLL
T1 sequence (Q14566 whole entry, chain 2 of 3): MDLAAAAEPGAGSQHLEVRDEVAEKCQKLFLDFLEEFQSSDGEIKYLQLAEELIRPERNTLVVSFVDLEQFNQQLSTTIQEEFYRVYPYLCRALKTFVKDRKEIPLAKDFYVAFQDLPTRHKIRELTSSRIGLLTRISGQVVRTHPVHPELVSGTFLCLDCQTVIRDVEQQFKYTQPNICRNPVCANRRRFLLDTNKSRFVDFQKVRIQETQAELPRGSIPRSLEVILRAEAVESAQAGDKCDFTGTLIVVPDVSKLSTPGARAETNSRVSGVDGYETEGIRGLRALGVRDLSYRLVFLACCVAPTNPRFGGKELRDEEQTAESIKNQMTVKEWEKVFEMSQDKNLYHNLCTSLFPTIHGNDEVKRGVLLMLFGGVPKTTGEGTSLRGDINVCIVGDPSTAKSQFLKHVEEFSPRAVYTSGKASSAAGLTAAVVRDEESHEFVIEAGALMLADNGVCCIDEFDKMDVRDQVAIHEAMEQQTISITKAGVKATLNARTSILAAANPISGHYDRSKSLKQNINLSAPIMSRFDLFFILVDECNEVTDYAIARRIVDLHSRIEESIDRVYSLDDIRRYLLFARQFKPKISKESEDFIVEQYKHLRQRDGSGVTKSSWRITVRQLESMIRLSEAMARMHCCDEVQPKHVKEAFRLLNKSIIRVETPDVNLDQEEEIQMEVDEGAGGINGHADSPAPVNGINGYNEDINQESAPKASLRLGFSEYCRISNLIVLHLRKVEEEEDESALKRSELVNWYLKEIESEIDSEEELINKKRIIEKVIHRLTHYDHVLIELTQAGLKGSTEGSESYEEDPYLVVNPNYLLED
T1 sequence (P33993 whole entry, chain 3 of 3): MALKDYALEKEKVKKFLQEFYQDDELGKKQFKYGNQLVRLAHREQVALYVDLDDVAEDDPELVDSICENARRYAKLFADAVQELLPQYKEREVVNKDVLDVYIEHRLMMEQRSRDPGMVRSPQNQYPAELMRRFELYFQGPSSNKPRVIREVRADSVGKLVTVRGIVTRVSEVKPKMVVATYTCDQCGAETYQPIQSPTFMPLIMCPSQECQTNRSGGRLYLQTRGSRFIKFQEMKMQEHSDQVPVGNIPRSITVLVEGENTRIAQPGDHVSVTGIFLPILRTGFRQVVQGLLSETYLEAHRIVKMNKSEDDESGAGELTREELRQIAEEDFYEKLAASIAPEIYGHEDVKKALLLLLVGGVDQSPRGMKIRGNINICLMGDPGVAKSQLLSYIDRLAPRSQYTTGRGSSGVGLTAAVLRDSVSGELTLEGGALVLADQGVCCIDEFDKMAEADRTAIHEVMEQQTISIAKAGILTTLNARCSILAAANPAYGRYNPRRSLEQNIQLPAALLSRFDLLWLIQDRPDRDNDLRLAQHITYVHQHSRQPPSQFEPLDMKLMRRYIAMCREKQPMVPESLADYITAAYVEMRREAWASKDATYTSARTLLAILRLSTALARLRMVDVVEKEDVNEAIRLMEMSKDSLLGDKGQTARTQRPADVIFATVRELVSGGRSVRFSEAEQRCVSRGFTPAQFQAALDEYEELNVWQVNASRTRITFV

B1: FLAG-HsGeminin-His6 (wild type) (natural protein, human, UniProt O75496 1-209, looked up)
chain: MNPSMKQKQEEIKENIKNSSVPRRTLKMIQPSASGSLVGRENELSAGLSKRKHRNDHLTSTTSSPGVIVPESSENKNLGGVTQESFDLMIKENPSSQYWKEVAEKRRKALYEALKENEKLHKEIEQKDNEIARLKKENKELAEVAEHVQYMAELIERLNGEPLDNFESLDNQEFDSEEETVEDSLVEDSEIGTCAEGTVSSSTDAKPCI
notes: also called wild-type HsGeminin; wt; source: Sf9, baculovirus; purified (Ni-NTA, then anti-FLAG M2 agarose); also in Sf9 lysate; not shown: FLAG, N-terminal, kept; His6, C-terminal, kept
In the case of B1, the binding result with FLAG-HsCdt1 is “binds”.

B2: Myc-HsCdc6 (natural protein, human, UniProt Q99741 1-560, looked up)
chain: MPQTRSQAQATISFPKRKLSRALNKAKNSSDAKLEPTNVQTVTCSPRVKALPLSPRKRLGDDNLCNTPHLPPCSPPKQGKKENGPPHSHTLKGRRLVFDNQLTIKSPSKRELAKVHQNKILSSVRKSQEITTNSEQRCPLKKESACVRLFKQEGTCYQQAKLVLNTAVPDRLPAREREMDVIRNFLREHICGKKAGSLYLSGAPGTGKTACLSRILQDLKKELKGFKTIMLNCMSLRTAQAVFPAIAQEICQEEVSRPAGKDMMRKLEKHMTAEKGPMIVLVLDEMDQLDSKGQDVLYTLFEWPWLSNSHLVLIGIANTLDLTDRILPRLQAREKCKPQLLNFPPYTRNQIVTILQDRLNQVSRDQVLDNAAVQFCARKVSAVSGDVRKALDVCRRAIEIVESDVKSQTILKPLSECKSPSEPLIPKRVGLIHISQVISEVDGNRMTLSQEGAQDSFPLQQKILVCSLMLLIRQLKIKEVTLGKLYEAYSKVCRKQQVAAVDQSECLSLSGLLEARGILGLKRNKETRLTKVFFKIEEKEIEHALKDKALIGNILATGLP
notes: human Cdc6; also called human Cdc6; source: Sf9, baculovirus; purified (anti-c-Myc 9E10 agarose, 9E10 peptide elution); also in Sf9 lysate; not shown: Myc, N-terminal, kept
Take B2: the binding result with HsMCM467 complex and with HsMCM2–7 complex was “binds” each time. Regarding B3, the binding result (in assay [1]; with HsMCM467 complex) was “binds” in each case.

For the origin of these results see publication PMC4215257, “Geminin Inhibits a Late Step in the Formation of Human Pre-replicative Complexes*” (The Journal of Biological Chemistry, 2014).
